# From the MegaScale stability set (Tsuboyama et al. 2023)
# B1: EEHEE_rd4_0469 (parent)
# chain: ITIHVNGVTYHFDNPEEAEKFAQKMAKTYQLKMEIHNGEFHME
# Variants of: B1
# Assay: folding stability dG (cDNA display proteolysis); higher = more stable
# Settings: PBS, room temperature
row,Variant,folding stability dG
1,ITIHVNGVTYHFDNPEEAEKFAQKMAKTYQLKMLIHNGEFHME,5.29 kJ/mol
2,ITIHVNGVTYHFDNPEEAEKFAQKMAKTYQLKMGIHNGEFHME,3.25 kJ/mol
3,ITIHVNGVTYHFDNPEEAEKFAQKMAKTYQLKMDIHNGEFHME,3.09 kJ/mol
4,ITIHVNGVTYHFDNPEEAEKFAQKMAKTYQLKMFIHNGEFHME,7.62 kJ/mol
5,ITIHVNGVTYHFDNPEEAEKFAQKMAKTYQLKMWIHNGEFHME,6.46 kJ/mol
6,ITIHVNGVTYHFDNPEEAEKFAQKMAKTYQLKMPIHNGEFHME,0.874 kJ/mol
7,ITIHVNGVTYHFDNPEEAEKFAQKMAKTYQLKMCIHNGEFHME,10.2 kJ/mol
8,ITIHVNGVTYHFDNPEEAEKFAQKMAKTYQLKMQIHNGEFHME,4.15 kJ/mol
9,ITIHVNGVTYHFDNPEEAEKFAQKMAKTYQLKMMIHNGEFHME,5.56 kJ/mol
10,ITIHVNGVTYHFDNPEEAEKFAQKMAKTYQLKMAIHNGEFHME,4.32 kJ/mol
11,ITIHVNGVTYHFDNPEEAEKFAQKMAKTYQLKMYIHNGEFHME,7.43 kJ/mol
12,ITIHVNGVTYHFDNPEEAEKFAQKMAKTYQLKMRIHNGEFHME,5.09 kJ/mol
13,ITIHVNGVTYHFDNPEEAEKFAQKMAKTYQLKMTIHNGEFHME,6.34 kJ/mol
14,ITIHVNGVTYHFDNPEEAEKFAQKMAKTYQLKMNIHNGEFHME,4.42 kJ/mol
15,ITIHVNGVTYHFDNPEEAEKFAQKMAKTYQLKMVIHNGEFHME,7.99 kJ/mol
16,ITIHVNGVTYHFDNPEEAEKFAQKMAKTYQLKMKIHNGEFHME,4.89 kJ/mol
17,ITIHVNGVTYHFDNPEEAEKFAQKMAKTYQLKMHIHNGEFHME,5.91 kJ/mol
18,ITIHVNGVTYHFDNPEEAEKFAQKMAKTYQLKMSIHNGEFHME,5.38 kJ/mol
19,ITIHVNGVTYHFDNPEEAEKFAQKMAKTYQLKMIIHNGEFHME,7 kJ/mol
20,ITIHVNGVTYHFDNPEEAEKFAQKMAKTYQLKMEKHNGEFHME,2.69 kJ/mol

row,Variant,folding stability dG
1,ITIHVNGVTYHFDNPEEAEKFAQKMAKTYQLKMEAHNGEFHME,3.02 kJ/mol
2,ITIHVNGVTYHFDNPEEAEKFAQKMAKTYQLKMESHNGEFHME,3.2 kJ/mol
3,ITIHVNGVTYHFDNPEEAEKFAQKMAKTYQLKMEHHNGEFHME,3.03 kJ/mol
4,ITIHVNGVTYHFDNPEEAEKFAQKMAKTYQLKMENHNGEFHME,2.87 kJ/mol
5,ITIHVNGVTYHFDNPEEAEKFAQKMAKTYQLKMEMHNGEFHME,3.97 kJ/mol
6,ITIHVNGVTYHFDNPEEAEKFAQKMAKTYQLKMEWHNGEFHME,4.45 kJ/mol
7,ITIHVNGVTYHFDNPEEAEKFAQKMAKTYQLKMEQHNGEFHME,3.44 kJ/mol
8,ITIHVNGVTYHFDNPEEAEKFAQKMAKTYQLKMELHNGEFHME,4.46 kJ/mol
9,ITIHVNGVTYHFDNPEEAEKFAQKMAKTYQLKMEPHNGEFHME,2.35 kJ/mol
10,ITIHVNGVTYHFDNPEEAEKFAQKMAKTYQLKMEEHNGEFHME,3.53 kJ/mol
11,ITIHVNGVTYHFDNPEEAEKFAQKMAKTYQLKMEGHNGEFHME,3.02 kJ/mol
12,ITIHVNGVTYHFDNPEEAEKFAQKMAKTYQLKMERHNGEFHME,2.18 kJ/mol
13,ITIHVNGVTYHFDNPEEAEKFAQKMAKTYQLKMEVHNGEFHME,4.31 kJ/mol
14,ITIHVNGVTYHFDNPEEAEKFAQKMAKTYQLKMEDHNGEFHME,2.85 kJ/mol
15,ITIHVNGVTYHFDNPEEAEKFAQKMAKTYQLKMEYHNGEFHME,5.17 kJ/mol
16,ITIHVNGVTYHFDNPEEAEKFAQKMAKTYQLKMETHNGEFHME,3.36 kJ/mol
17,ITIHVNGVTYHFDNPEEAEKFAQKMAKTYQLKMEFHNGEFHME,5.04 kJ/mol
18,ITIHVNGVTYHFDNPEEAEKFAQKMAKTYQLSMEIHNGEFHME,5.82 kJ/mol
19,ITIHVNGVTYHFDNPEEAEKFAQKMAKTYQLTMEIHNGEFHME,6.32 kJ/mol
20,ITIHVNGVTYHFDNPEEAEKFAQKMAKTYQLEMEIHNGEFHME,6.2 kJ/mol

row,Variant,folding stability dG
1,ITIHVNGVTYHFDNPEEAEKFAQKMAKTYQLGMEIHNGEFHME,4.74 kJ/mol
2,ITIHVNGVTYHFDNPEEAEKFAQKMAKTYQLPMEIHNGEFHME,4.54 kJ/mol
3,ITIHVNGVTYHFDNPEEAEKFAQKMAKTYQLMMEIHNGEFHME,6.02 kJ/mol
4,ITIHVNGVTYHFDNPEEAEKFAQKMAKTYQLFMEIHNGEFHME,6.04 kJ/mol
5,ITIHVNGVTYHFDNPEEAEKFAQKMAKTYQLNMEIHNGEFHME,5.35 kJ/mol
6,ITIHVNGVTYHFDNPEEAEKFAQKMAKTYQLIMEIHNGEFHME,6.93 kJ/mol
7,ITIHVNGVTYHFDNPEEAEKFAQKMAKTYQLYMEIHNGEFHME,6.63 kJ/mol
8,ITIHVNGVTYHFDNPEEAEKFAQKMAKTYQLDMEIHNGEFHME,5.5 kJ/mol
9,ITIHVNGVTYHFDNPEEAEKFAQKMAKTYQLRMEIHNGEFHME,3.55 kJ/mol
10,ITIHVNGVTYHFDNPEEAEKFAQKMAKTYQLAMEIHNGEFHME,5.73 kJ/mol
11,ITIHVNGVTYHFDNPEEAEKFAQKMAKTYQLLMEIHNGEFHME,6.37 kJ/mol
12,ITIHVNGVTYHFDNPEEAEKFAQKMAKTYQLHMEIHNGEFHME,6.18 kJ/mol
13,ITIHVNGVTYHFDNPEEAEKFAQKMAKTYQLQMEIHNGEFHME,6.06 kJ/mol
14,ITIHVNGVTYHFDNPEEAEKFAQKMAKTYQLVMEIHNGEFHME,6.77 kJ/mol
15,ITIHVNGVTYHFDNPEEAEKFAQKMAKTYQLWMEIHNGEFHME,6.45 kJ/mol
16,ITIHVNGVTYHFDNPEEAEKFAQKMAKTYYLKMEIHNGEFHME,4.77 kJ/mol
17,ITIHVNGVTYHFDNPEEAEKFAQKMAKTYELKMEIHNGEFHME,5.05 kJ/mol
18,ITIHVNGVTYHFDNPEEAEKFAQKMAKTYPLKMEIHNGEFHME,6.42 kJ/mol
19,ITIHVNGVTYHFDNPEEAEKFAQKMAKTYGLKMEIHNGEFHME,6.28 kJ/mol
